Laboratory results as given in patent US20110086767A1, “MUTANTS OF GLYCOSIDE HYDROLASES AND USES THEREOF FOR SYNTHESIZING COMPLEX OLIGOSACCHARIDES AND DISACCHARIDE INTERMEDIATES” (Institut Pasteur, priority 2008, published 2011).

How the values were obtained:
[1] = test system: Neisseria polysaccharea amylosucrase 1G5A (parent SEQ ID NO: 13) variants A289P-F290C, A289P-F290I and A289P-F290L; assay: Kinetic parameters towards α-D-GlcpNAc-OAll acceptor, the three double mutants stated together; format: biochemical; conditions: sucrose 250 mM
Protocol: (§1) The double mutants A289P-F290C, A289P-F290I and A289P-F290L were produced and purified, as previously described in Example 1-1. The protein content was determined by the Nanodrop ND-1000 spectrophotometer. These mutants were tested on sucrose alone or supplemented with α-D-GlcpNAc-OAll acceptor, and compared to wtAS and F290K. Assays were performed at 30° C. in 50 mM Tris-HCl buffer, pH=7.0.
(§2) Enzyme assays were carried out in a total volume of 2 mL containing pure enzyme (0.037 mg, 0.076 mg and 0.046 mg when using A289P-F290C, A289P-F2901 and A289P-F290L, respectively).
(§3) The kcat/Km (α-D-GlcpNAc-OAll) value was calculated from the initial rate of formation of desired disaccharide (α-D-Glcp-(1→4)-α-D-GlcpNAc-OAll), corresponding to the initial rate of α-D-GlcpNAc-OAll consumed. As saturation was not achieved with the mutants, efficiency was calculated by linear regression analysis of the velocity versus substrate concentration plot.

[2] = test system: OC[C@H]1O[C@@](CO)(O[C@H]2O[C@H](CO)[C@@H](O)[C@H](O)[C@H]2O)[C@@H](O)[C@@H]1O; assay: Kinetic parameters towards sucrose donor, double mutant A289P-F290C; format: biochemical, Neisseria polysaccharea; conditions: other: sucrose donor (0-500 mM), Eadie-Hofstee plot, 30° C., pH 7.0
Protocol: as §1
(§4) Enzyme assays were carried out in a total volume of 2 mL containing pure enzyme (0.073 mg, 0.153 mg and 0.092 mg when using A289P-F290C, A289P-F2901 and A289P-F290L, respectively).
(§5) Kinetic studies of AS variants were performed in the presence of sucrose (0-500 mM). At regular time intervals (2-5 min), aliquots (200 μL) were removed, heated (95° C., 2 min) and centrifuged (18000 g, 5 min) All the samples were filtered on a 0.22 μm membrane and analyzed using HPLC material previously described. The initial rate of sucrose consumed, corresponding to the initial rate of fructose released, was expressed in mole of fructose released per minute and per gram of enzyme. The kinetic parameters kcat and Km were calculated using Eadie-Hofstee plot.

[3] = test system: OC[C@H]1O[C@@](CO)(O[C@H]2O[C@H](CO)[C@@H](O)[C@H](O)[C@H]2O)[C@@H](O)[C@@H]1O; assay: Kinetic parameters towards sucrose donor, double mutant A289P-F290I; format: biochemical, Neisseria polysaccharea; conditions: other: sucrose donor (0-500 mM), Eadie-Hofstee plot, 30° C., pH 7.0
Protocol: as §1, §4, §5

[4] = test system: OC[C@H]1O[C@@](CO)(O[C@H]2O[C@H](CO)[C@@H](O)[C@H](O)[C@H]2O)[C@@H](O)[C@@H]1O; assay: Kinetic parameters towards sucrose donor, double mutant A289P-F290L; format: biochemical, Neisseria polysaccharea; conditions: other: sucrose donor (0-500 mM), Eadie-Hofstee plot, 30° C., pH 7.0
Protocol: as §1, §4, §5

[5] = data from ref. 83, cited from earlier work
[6] = HPLC screening of double-mutant libraries for variants able to glucosylate D-GlcpNAc; format: biochemical; conditions: α-D-Glcp-(1→4)-α-D-GlcpNAc (ED) from sucrose and D-GlcpNAc, microplate format
[7] = HPLC screening of the single-mutant amylosucrase library for glucosylation of D-GlcpNAc; format: biochemical
Protocol: The protocol was established to enable the rapid identification of clones for which D-GlcpNAc glucosylation was improved. To obtain higher amounts of enzymes and facilitate detection of glucosylated compounds upon HPLC screening, mutants were produced in 96-DeepWell Format plates. Storage microplates containing monomutants were thawed and replicated to inoculate a starter culture in 96-well microplates containing, in each well, 150 μL LB medium supplemented with ampicillin (100 μg/mL). After growth for 24 h at 30° C. under agitation (200 rpm), plates were duplicated into 96-Deep Well plates containing, in each well, 1.1 mL LB medium supplemented with ampicillin (100 μg/mL) and IPTG (1 mM) to induce GST-AS expression. Cultures were then grown for 24 h at 30° C. under agitation (200 rpm). Plates were centrifuged (20 min, 3000 g, 4° C.) and the supernatant was removed. The cell pellet was resuspended in 200 μL of lysozyme (0.5 mg/mL), followed by freezing at −80° C. for 8 to 12 h. After thawing at room temperature, 100 μL of sucrose and 100 μL of acceptor (each at a final concentration of 73 mM) were added to each well. Enzymatic reaction was incubated at 30° C. during 24 h under agitation. The DeepWell plates were then centrifuged (20 min, 3000 g, 4° C.) and 300 μL of the supernatant was transferred to a filter micro-plate (PVDF 0.2 μm) to be clarified. […]
Efficiency of the glucosylation reaction was evaluated by HPLC analysis of the acceptor reaction product synthesized when using D-GlcpNAc as acceptor using a Dionex P 680 series pump, a Shodex RI 101 series refractometer, a Dionex UVD 340 UV/Vis detector and an autosampler HTC PAL. […]
For each of the 7 selected positions, 19 single mutants were generated (corresponding to each possible amino acid change). […] Both sucrose consumption and disaccharide formation were determined in order to calculate the glucosylation rate defined as the molar ratio of monoglucosylated acceptor versus/sucrose consumed.

[8] = Kinetic parameters towards α-D-GlcpNAc-OAll acceptor; format: biochemical; conditions: 250 mM for both sucrose and α-D-GlcpNAc-OAll
Protocol: as §2, §3

[9] = Glucosylation of α-D-GlcpNAc-OAll by purified F290D, F290K and ASNPwt (146 mM sucrose + 146 mM acceptor); format: biochemical; conditions: purified enzyme; Sucrose=Acceptor=146 mM; compared with ASNPwt
Protocol: All assays were performed at 30° C. in 50 mM Tris buffer, pH=7.0. For the acceptor reactions, F290D, F290K and ASNPwt (1G5A) were tested on α-D-GlcpNAc-OAll.
Comparison of products synthesized by wild-type and AS variants. Reactions were performed in the presence of 146 mM sucrose alone or supplemented with 146 mM acceptor. The purified wild-type or mutated GST/AS were employed at 0.5 U/mL. The reactions were stopped by heating at 95° C. for 5 min. The final mixture was centrifuged at 18 000 g for 10 min, filtered on 0.22 μm membrane and analyzed by HPLC, as previously described.
Soluble and insoluble oligosaccharides produced during the reaction were identified by HPAEC using a Dionex Carbo-Pack PA100 column at 30° C. Before analysis, the insoluble fraction was solubilized in KOH at a final total sugar concentration of 10 g/kg. Mobile phase (150 mM NaOH) was set at 1 mL/min flow rate with a sodium acetate gradient (going from 6 to 500 mM within 120 min). Detection was performed using a Dionex ED40 module with a gold working electrode and an Ag/AgCl pH reference. Note that α-D-GlcpNAc-OAll (acceptor) and its derivatives are not oxidable products and thus are not detectable by HPAEC. Sucrose, glucose, fructose, α-D-GlcpNAc-OAll (acceptor) and its derivatives (glucosylation products) were quantified by HPLC, as previously described

With C=CCO[C@H]1O[C@H](CO)[C@@H](O)[C@H](O)[C@H]1NC(C)=O [α-D-GlcpNAc-OAll, allyl 2-acetamido-2-deoxy-α-D-glucopyranoside] the “increase of catalytic efficiency towards α-D-GlcpNAc-OAll compared to variant F290K” value ([1]; three double mutants vs F290K) was 3 fold and the “increase of catalytic efficiency towards α-D-GlcpNAc-OAll compared to wtAS” value ([1]; three double mutants vs wtAS) was at most 395 fold.

In the case of “Neisseria polysaccharea amylosucrase 1G5A (parent SEQ ID NO: 13) variant A289P-F290C (Neisseria polysaccharea; A297P/F298C/G545D)”, the Km [2] is reported as 18.9 mM.

With “Neisseria polysaccharea amylosucrase 1G5A (parent SEQ ID NO: 13) variant A289P-F290I (Neisseria polysaccharea; A297P/F298I/G545D)” the Km [3] was 17.2 mM.

Work on “Neisseria polysaccharea amylosucrase 1G5A (parent SEQ ID NO: 13) variant A289P-F290L (Neisseria polysaccharea; A297P/F298L/G545D)” yielded a Km [4] of 10.1 mM.

B1: wtAS: Wild type glycoside hydrolase: amylosucrase 1G5A from Neisseria polysaccharea, SEQ ID NO: 13 (protein, listed as Neisseria polysaccharea)
chain: SPNSQYLKTRILDIYTPEQRAGIEKSEDWRQFSRRMDTHFPKLMNELDSVYGNNEALLPMLEMLLAQAWQSYSQRNSSLKDIDIARENNPDWILSNKQVGGVCYVDLFAGDLKGLKDKIPYFQELGLTYLHLMPLFKCPEGKSDGGYAVSSYRDVNPALGTIGDLREVIAALHEAGISAVVDFIFNHTSNEHEWAQRCAAGDPLFDNFYYIFPDRRMPDQYDRTLREIFPDQHPGGFSQLEDGRWVWTTFNSFQWDLNYSNPWVFRAMAGEMLFLANLGVDILRMDAVAFIWKQMGTSCENLPQAHALIRAFNAVMRIAAPAVFFKSEAIVHPDQVVQYIGQDECQIGYNPLQMALLWNTLATREVNLLHQALTYRHNLPEHTAWVNYVRSHDDIGWTFADEDAAYLGISGYDHRQFLNRFFVNRFDGSFARGVPFQYNPSTGDCRVSGTAAALVGLAQDDPHAVDRIKLLYSIALSTGGLPLIYLGDEVGTLNDDDWSQDSNKSDDSRWAHRPRYNEALYAQRNDPSTAAGQIYQDLRHMIAVRQSNPRFDGGRLVTFNTNNKHIIGYIRNNALLAFGNFSEYPQTVTAHTLQAMPFKAHDLIGGKTVSLNQDLTLQPYQVMWLEIA
In the case of B1, the “V250mM (initial rate of sucrose consumption)” value ([5]; 250 mM sucrose) is given as 900 µmol/min/g, the “behaviour (at high concentration)” value ([5]; sucrose donor) is given as “saturation” and the “Glusosylation Yield to synthesize ED” value [6] is given as 2%. For the same molecule, the “glucosylation rate (formation of α-D-Glcp-(1→4)-D-GlcpNAc)” value ([7]; molar ratio of monoglucosylated acceptor versus sucrose consumed, sucrose and D-GlcpNAc 73 mM each, 30° C., 24 h, microtiter format) was 2% and the “V250mM (initial rate of acceptor consumption)” value [8] was 290 µmol/min/g.

B2: F290D: single mutant F290D of N. polysaccharea amylosucrase 1G5A (protein)
chain: SPNSQYLKTRILDIYTPEQRAGIEKSEDWRQFSRRMDTHFPKLMNELDSVYGNNEALLPMLEMLLAQAWQSYSQRNSSLKDIDIARENNPDWILSNKQVGGVCYVDLFAGDLKGLKDKIPYFQELGLTYLHLMPLFKCPEGKSDGGYAVSSYRDVNPALGTIGDLREVIAALHEAGISAVVDFIFNHTSNEHEWAQRCAAGDPLFDNFYYIFPDRRMPDQYDRTLREIFPDQHPGGFSQLEDGRWVWTTFNSFQWDLNYSNPWVFRAMAGEMLFLANLGVDILRMDAVADIWKQMGTSCENLPQAHALIRAFNAVMRIAAPAVFFKSEAIVHPDQVVQYIGQDECQIGYNPLQMALLWNTLATREVNLLHQALTYRHNLPEHTAWVNYVRSHDDIGWTFADEDAAYLGISGYDHRQFLNRFFVNRFDGSFARGVPFQYNPSTGDCRVSGTAAALVGLAQDDPHAVDRIKLLYSIALSTGGLPLIYLGDEVGTLNDDDWSQDSNKSDDSRWAHRPRYNEALYAQRNDPSTAAGQIYQDLRHMIAVRQSNPRFDGGRLVTFNTNNKHIIGYIRNNALLAFGNFSEYPQTVTAHTLQAMPFKAHDLIGGKTVSLNQDLTLQPYQVMWLEIA
With B2 the “increase of glucosylation rate compared to the wild type” value ([7]; acceptor D-GlcpNAc) was 45 fold, the “times more efficient for α-D-GlcpNAc-OAll glucosylation” value [9] was 10 times and the “times more efficient to form α-D-Glcp-(1→4)-D-GlcpNAc-OAll” value [9] was 20 times.
